Where two headings read alike, the source gives them in different places.
Experiments:
[1] = target: HLA-A*0301 (human); experiment: competition with 125I-labeled probe peptide for purified HLA, gel filtration
[2] = target: HLA-A*1101 (human); experiment: as above
[3] = target: HLA-A*3101 (human); experiment: as above
[4] = target: HLA-A*3301 (human); experiment: as above
[5] = target: HLA-A*6801 (human); experiment: as above
[6] = target: HLA-A*3101 (human)
[7] = target: HLA-A*6801 (human)
[8] = target: HLA-B*0702 (Human)
[9] = target: HLA-B*0702 (Human); remark: listed apart in the source
[10] = target: HLA-A*0301 (human)
[11] = target: HLA-A*1101 (human)
[12] = target: HLA-A*2401 (as the column head of Table X prints it), purified HLA class I molecule (human); experiment: competition with 125I-labelled standard peptide for purified HLA, gel filtration
[13] = target: HLA-B*3501 (human); experiment: competition with 125I probe peptide for purified HLA, gel filtration
[14] = target: HLA-A*1101 (Human); experiment: competition with 125I-labelled probe peptide for purified HLA-A*1101
[15] = target: HLA-A*0301 (human); remark: listed apart in the source
[16] = target: T1, HLA-DR1 (DRB1*0101) (human); experiment: inhibition of 125I-probe peptide binding to purified HLA-DR, gel filtration
T1 chain 1: not shown
T1 chain 2: not shown

[17] = target: T2, HLA-DR2w2β1 (DRB1*1501) (human); experiment: as above
T2 chain 1: not shown
T2 chain 2: not shown

[18] = target: T3, HLA-DR2w2β2 (DRB5*0101) (human); experiment: as above
T3 chain 1: not shown
T3 chain 2: not shown

[19] = target: T4, HLA-DR3 (DRB1*0301) (human); experiment: as above
T4 chain 1: not shown
T4 chain 2: not shown

[20] = target: T5, HLA-DR4w15 (DRB1*0405) (human); experiment: as above
T5 chain 1: not shown
T5 chain 2: not shown

[21] = target: T6, HLA-DR4w4 (DRB1*0401) (human); experiment: as above
T6 chain 1: not shown
T6 chain 2: not shown

[22] = target: T7, HLA-DR5w11 (DRB1*1101) (human); experiment: as above
T7 chain 1: not shown
T7 chain 2: not shown

[23] = target: T1, HLA-DR1 (DRB1*0101) (human)
[24] = target: T2, HLA-DR2w2β1 (DRB1*1501) (human)
[25] = target: T3, HLA-DR2w2β2 (DRB5*0101) (human)
[26] = target: T4, HLA-DR3 (DRB1*0301) (human)
[27] = target: T5, HLA-DR4w15 (DRB1*0405) (human)
[28] = target: T6, HLA-DR4w4 (DRB1*0401) (human)
[29] = target: T7, HLA-DR5w11 (DRB1*1101) (human)
[30] = target: HLA-A*0301 (human); experiment: competition with 125I-labelled standard peptide for purified HLA, gel filtration
[31] = target: HLA-A*1101 (human); experiment: as above
[32] = target: HLA-A*3101 (human); experiment: as above
[33] = target: HLA-A*3301 (human); experiment: as above
[34] = target: HLA-A*0203 (human); experiment: competition with 125I probe peptide for purified HLA, gel filtration
[35] = target: HLA-A*6802 (human); experiment: as above
[36] = target: T1, HLA-DR1 (DRB1*0101) (human)
[37] = target: T4, HLA-DR3 (DRB1*0301) (human)
[38] = target: T8, HLA-DR6w19 (DRB1*1302) (human)
T8 chain 1: not shown
T8 chain 2: not shown

[39] = target: HLA-A*6801 (human); experiment: competition with 125I-labelled standard peptide for purified HLA, gel filtration
[40] = target: T9, HLA-DR5w12 (DRB1*1201) (human)
T9 chain 1: not shown
T9 chain 2: not shown

[41] = target: T8, HLA-DR6w19 (DRB1*1302) (human)
[42] = target: T10, HLA-DR7 (DRB1*0701) (human)
T10 chain 1: not shown
T10 chain 2: not shown

[43] = target: T11, HLA-DR9 (DRB1*0901) (human)
T11 chain 1: not shown
T11 chain 2: not shown

[44] = target: HLA-A*0301 (human); remark: listed apart in the source
[45] = target: HLA-DR1 (DRB1*0101) (human); experiment: competition with 125I-labeled probe peptide on purified HLA-DR, gel filtration
[46] = target: HLA-DR2w2β2 (DRB5*0101) (human); experiment: as above
[47] = target: HLA-DR4w15 (DRB1*0405) (human); experiment: as above
[48] = target: T6, HLA-DR4w4 (DRB1*0401) (human); experiment: as above
[49] = target: HLA-DR5w11 (DRB1*1101) (human); experiment: as above
[50] = target: HLA-B*0702 (human); experiment: competition with 125I probe peptide for purified HLA, gel filtration
[51] = target: HLA-B*5401 (human); experiment: as above

LALFFIIFNK (modifications not checked) [… (P. falciparum EXP, position 9, 10 amino acids)]
binding affinity ratio (relative to standard peptide) [1]: 0.014 | binding affinity ratio (relative to standard peptide) [2]: 0.053 | binding affinity ratio (relative to standard peptide) [3]: 0.0072 | binding affinity ratio (relative to standard peptide) [4]: 0.0076 | binding affinity ratio (relative to standard peptide) [5]: 0.0039

NANANNAVK (modifications not checked) [… (P. falciparum CSP, position 335)]
binding affinity ratio (IC50 of standard peptide / IC50 of test peptide) [6]: 0.0006 | binding affinity ratio (IC50 of standard peptide / IC50 of test peptide) [7]: 0.021

VSSKKKNKK (modifications not checked) [… (P. falciparum EXP, position 33, 9 amino acids)]
binding affinity ratio (relative to standard peptide) ([1]; scale: ratio): 0.0001 | binding affinity ratio (relative to standard peptide) ([2]; scale: ratio): 0.0002 | binding affinity ratio (relative to standard peptide) ([4]; scale: ratio): 0.001 | binding affinity ratio (relative to standard peptide) ([5]; scale: ratio): 0.0002

VPGAATPYA (modifications not checked) [… (P. falciparum SSP2, position 522)]
binding affinity ratio (IC50 of standard peptide / IC50 of test peptide) [8]: 0.0001

NPEDDREENF (modifications not checked) [… (P. falciparum SSP2, position 382)]
binding affinity ratio (IC50 of standard peptide / IC50 of test peptide) [9]: 0.0001

NLPNDKSDR (modifications not checked) [… (P. falciparum SSP2, position 406, 9 amino acids)]
binding affinity ratio (relative to standard peptide) [10]: 0.0005 | binding affinity ratio (relative to standard peptide) [11]: 0.0002

PYAGEPAPF (modifications not checked) [… (Pf SSP2 position 528, 9-mer)]
binding affinity ratio (IC50 of standard peptide / IC50 of test peptide) [12]: 0.037

LPYGRTNL (modifications not checked) [19.0051]
IC50 [13]: > 30000 nM

EDNEKLRKPK (modifications not checked) [… (Pf CSP 100, A11 motif peptide)]
binding affinity ratio (IC50 of standard peptide / IC50 of test peptide) [14]: 0.0002

IAGGLALLA (modifications not checked) [… (P. falciparum SSP2 position 504, 9-mer, A3 motif peptide)]
binding affinity ratio (IC50 of standard peptide / IC50 of test peptide) [15]: 0.0002

RHPFKIGSSDPADNA (modifications not checked)
binding affinity ratio (relative binding) (ratio to standard peptide) [16]: 0.0044 | binding affinity ratio (relative binding) (ratio to standard peptide) [17]: -0.0004 | binding affinity ratio (relative binding) (ratio to standard peptide) [18]: -0.0005 | binding affinity ratio (relative binding) (ratio to standard peptide) [19]: -0.0008 | binding affinity ratio (relative binding) (ratio to standard peptide) [20]: 0.0029 | binding affinity ratio (relative binding) (ratio to standard peptide) [21]: 0.47 | binding affinity ratio (relative binding) (ratio to standard peptide) [22]: 0.0056

VFFLALFFIIFNKES (modifications not checked)
binding affinity ratio (relative binding) (ratio to standard peptide) [23]: 0.0006 | binding affinity ratio (relative binding) (ratio to standard peptide) [24]: 0.018 | binding affinity ratio (relative binding) (ratio to standard peptide) [25]: -0.0021 | binding affinity ratio (relative binding) (ratio to standard peptide) [26]: -0.0043 | binding affinity ratio (relative binding) (ratio to standard peptide) [27]: 0.01 | binding affinity ratio (relative binding) (ratio to standard peptide) [28]: 0.0047 | binding affinity ratio (relative binding) (ratio to standard peptide) [29]: -0.0005

QSQDNNGNR (modifications not checked)
binding affinity ratio (IC50 of standard peptide / IC50 of test peptide) [30]: 0.0005 | binding affinity ratio (IC50 of standard peptide / IC50 of test peptide) [31]: 0.0002 | binding affinity ratio (IC50 of standard peptide / IC50 of test peptide) [32]: 0.002 | binding affinity ratio (IC50 of standard peptide / IC50 of test peptide) [33]: 0.0093

KYLVIVFLIF (modifications not checked) [… (Pf SSP2 position 8, 10-mer)]
binding affinity ratio (IC50 of standard peptide / IC50 of test peptide) [12]: 0.0003

ILSVSSFLFV (modifications not checked) [1167.18]
IC50 [34]: 19 nM | IC50 [35]: 2100 nM

VPLAMKLI (modifications not checked) [VPLAMKLI (P. falciparum SSP2, position 69)]
binding affinity ratio (IC50 of standard peptide / IC50 of test peptide) [9]: 0.0001

KCNLYADSAWENVKN (modifications not checked) [35.0172 … (Pf SSP2 211)]
IC50 [36]: 23400 nM | IC50 [37]: 857 nM | IC50 [38]: 11100 nM

YADSAWENVK (modifications not checked)
binding affinity ratio (IC50 of standard peptide / IC50 of test peptide) [31]: 0.0002 | binding affinity ratio (IC50 of standard peptide / IC50 of test peptide) [32]: 0.0009 | binding affinity ratio (IC50 of standard peptide / IC50 of test peptide) [33]: 0.0009 | binding affinity ratio (IC50 of standard peptide / IC50 of test peptide) [39]: 0.0077

VFNVVNSSIGLIMVL (modifications not checked) [… (Pf CSP DR-supermotif 15-mer, core …)]
binding affinity ratio (relative to standard peptide) [40]: 0.0015 | binding affinity ratio (relative to standard peptide) [41]: 0.26 | binding affinity ratio (relative to standard peptide) [42]: 0.18 | binding affinity ratio (relative to standard peptide) [43]: 0.5

LALFFIIFNK (modifications not checked) [… (P. falciparum EXP, position 9)]
binding affinity ratio (IC50 of standard peptide / IC50 of test peptide) [44]: 0.014

SCGVWDEWSPCSVTC (modifications not checked)
binding affinity ratio (IC50 standard peptide / IC50 test peptide) [45]: 0.0001 | binding affinity ratio (IC50 standard peptide / IC50 test peptide) [46]: -0.0005 | binding affinity ratio (IC50 standard peptide / IC50 test peptide) [47]: -0.0009 | binding affinity ratio (IC50 standard peptide / IC50 test peptide) [48]: -0.0009 | binding affinity ratio (IC50 standard peptide / IC50 test peptide) [49]: -0.0002

TPYAGEPAPF (modifications not checked) [1167.61]
IC50 [50]: 31 nM | IC50 [51]: 25000 nM

EALFQEYQCY (modifications not checked) [… (Pf CSP 17, A11 motif peptide)]
binding affinity ratio (IC50 of standard peptide / IC50 of test peptide) [14]: 0.0002

— patent US9266930
